Laboratory results reported in paper PMC10287982.

What was measured:
[1] = molecular target: 70S ribosome on biotinylated mRNA with the UAA stop codon in the A site (no release factor bound) (E. coli) (UniProt P0AG67); assay: single-molecule fluorescence in zero-mode waveguides (factor occupancy with intersubunit FRET); ribosome immobilised through biotinylated MF-UAA mRNA on Neutravidin; Cy5.5-RF1 or Cy5.5-RF2 with 0-200 nM dark RF3, RRF, EF-G, 4 mM GTP; Tris-based polymix buffer pH 7.5; 20°C
[2] = molecular target: 70S ribosome with bound wild-type (dark) RF3, rotated post-termination state (E. coli MG1655 K12 | E. coli) (UniProt P0A7I4); assay: as above
[3] = molecular target: post-termination RF1-70S complex (Cy5.5-RF1 bound to the non-rotated 70S ribosome) (not stated | E. coli) (UniProt P0A7I0); assay: single-molecule fluorescence in zero-mode waveguides (factor occupancy with intersubunit FRET); Cy5-RF3 occupancy on the Cy5.5-RF1-bound non-rotated ribosome with 50% GDP (1:1 ratio of GTP:GDP); triple exponential fit
[4] = molecular target: 70S ribosome on biotinylated mRNA with the UAA stop codon in the A site (no release factor bound) (E. coli) (UniProt P0AG67); assay: single-molecule fluorescence in zero-mode waveguides (factor occupancy with intersubunit FRET); as a4 (MF-UAA mRNA, Cy5.5-RF1, Cy5-RF3, GTP) but at 12°C
[5] = molecular target: post-termination RF1-70S complex (Cy5.5-RF1 bound to the non-rotated 70S ribosome) (not stated | E. coli) (UniProt P0A7I0); assay: single-molecule fluorescence in zero-mode waveguides (factor occupancy with intersubunit FRET); pre-elongated immobilised 70S with the stop codon in the A site; 75 nM Cy5-RF3, 20 nM Cy5.5-RF1, 4 mM GDP, polymix buffer, 20°C
[6] = molecular target: 70S ribosome on biotinylated mRNA with the UAA stop codon in the A site (no release factor bound) (E. coli) (UniProt P0AG67); assay: single-molecule fluorescence in zero-mode waveguides (factor occupancy with intersubunit FRET); pre-elongated immobilised 70S with the stop codon in the A site; 75 nM Cy5-RF3, 20 nM Cy5.5-RF1, 4 mM GDPCP, polymix buffer, 20°C, no RRF or EF-G
[7] = molecular target: post-termination RF1-70S complex (Cy5.5-RF1 bound to the non-rotated 70S ribosome) (not stated | E. coli) (UniProt P0A7I0); assay: as above
[8] = molecular target: 70S ribosome on biotinylated mRNA with the UAA stop codon in the A site (no release factor bound) (E. coli) (UniProt P0AG67); assay: single-molecule fluorescence in zero-mode waveguides (factor occupancy with intersubunit FRET); ribosome immobilised through biotinylated mRNA; Cy5.5-RF1 and Cy5-RF3 tracked together, 4 mM GTP, Tris-based polymix buffer pH 7.5, 20°C
[9] = molecular target: post-termination RF1-70S complex (Cy5.5-RF1 bound to the non-rotated 70S ribosome) (not stated | E. coli) (UniProt P0A7I0); assay: as above
[10] = molecular target: 70S ribosome on biotinylated mRNA with the UAA stop codon in the A site (no release factor bound) (E. coli) (UniProt P0AG67); assay: single-molecule fluorescence in zero-mode waveguides (factor occupancy with intersubunit FRET); Cy5.5-RF1 in the absence of RRF, with and without RF3; first-bound and rebound RF1 events on the immobilised ribosome (Supplementary Figure S2); temperature not given
[11] = molecular target: 70S ribosome with bound wild-type (dark) RF3, rotated post-termination state (E. coli MG1655 K12 | E. coli) (UniProt P0A7I4); assay: as above
[12] = molecular target: 70S ribosome with bound Cy5-RF3, rotated post-termination state (E. coli MG1655 K12 | E. coli) (UniProt P0A7I4); assay: single-molecule fluorescence in zero-mode waveguides (factor occupancy with intersubunit FRET); as a4 (MF-UAA mRNA, Cy5.5-RF1, Cy5-RF3, GTP) but at 12°C
[13] = molecular target: 70S ribosome on biotinylated mRNA with the UAA stop codon in the A site (no release factor bound) (E. coli) (UniProt P0AG67); assay: single-molecule fluorescence in zero-mode waveguides (factor occupancy with intersubunit FRET); as a1 with Cy5.5-RF1 and dark RF3, 4 mM GTP, but at 30°C
[14] = molecular target: 70S ribosome with bound wild-type (dark) RF3, rotated post-termination state (E. coli MG1655 K12 | E. coli) (UniProt P0A7I4); assay: as above
[15] = molecular target: 70S ribosome on biotinylated mRNA with the UAA stop codon in the A site (no release factor bound) (E. coli) (UniProt P0AG67); assay: single-molecule fluorescence in zero-mode waveguides (factor occupancy with intersubunit FRET); Cy5.5-RF1 and Cy5-RF3 with GTP and the antimicrobial peptide Api137 added; occupancy limited by Cy5.5 photobleaching and movie time (6 min)
[16] = molecular target: 70S ribosome with bound Cy5-RF3, rotated post-termination state (E. coli MG1655 K12 | E. coli) (UniProt P0A7I4); assay: single-molecule fluorescence in zero-mode waveguides (factor occupancy with intersubunit FRET); pre-elongated immobilised 70S with the stop codon in the A site; 75 nM Cy5-RF3, 20 nM Cy5.5-RF1, 4 mM GDPCP, polymix buffer, 20°C, no RRF or EF-G
[17] = molecular target: 70S ribosome with bound Cy5-RF3, rotated post-termination state (E. coli MG1655 K12 | E. coli) (UniProt P0A7I4); assay: single-molecule fluorescence in zero-mode waveguides (factor occupancy with intersubunit FRET); ribosome immobilised through biotinylated mRNA; Cy5.5-RF1 and Cy5-RF3 tracked together, 4 mM GTP, Tris-based polymix buffer pH 7.5, 20°C

Substance: Cy5.5-labeled RF2 (from UniProt P07012 1-365) (natural protein)
- kiAR- (spontaneous and simultaneous dissociation and ribosome rotation from the post-termination ribosome) [1]: 0.04 s⁻¹
- mean dwell time on the terminating ribosome in the absence of RF3 (tau 2BD-) [1]: 38 s
- koff [2]: 3.5 s⁻¹

Substance: Cy5-RF3 (ybbR-tagged RF3 labelled with Cy5-CoA) (from UniProt P0A7I4 1-529) (natural protein)
- dissociation rate of the slowest phase of a triple exponential [3]: 0.3 s⁻¹
- fold slow-down of dissociation at 12°C against 20°C [4]: 21 fold
- k3off1 (sampling mode, fast phase of a double exponential) [5]: 4.6 s⁻¹
- k3off2 (sampling mode, slow phase of a double exponential) [5]: 0.25 s⁻¹
- kon [5]: 2e+06 M⁻¹ s⁻¹
- koff [6]: 0.0164 s⁻¹
- k3off1 (sampling mode, fast phase of a double exponential) [7]: 1.1 s⁻¹
- k3off2 (sampling mode, slow phase of a double exponential) [7]: 0.18 s⁻¹
- kon [7]: 2e+06 M⁻¹ s⁻¹
- koff [8]: 4 s⁻¹
- k3off1 (sampling mode, fast phase of a double exponential) [9]: 1.3 s⁻¹
- k3off2 (sampling mode, slow phase of a double exponential) [9]: 0.3 s⁻¹
- kon [9]: 2.3e+06 M⁻¹ s⁻¹

Substance: Cy5.5-labeled RF1 (from UniProt P0A7I0 1-360) (natural protein)
- kiAR- (first-bound ribosomes, no RRF) [10]: 0.04 s⁻¹
- kiAR- (rebound ribosomes, no RRF) [10]: 0.08 s⁻¹
- k1RD+ (first-bound RF1, no RRF) [11]: 0.77 s⁻¹
- k1RD+ (rebound RF1, no RRF) [11]: 1 s⁻¹
- kiAR- (spontaneous and simultaneous dissociation and ribosome rotation from the post-termination ribosome) [1]: 0.027 s⁻¹
- kon [1]: 2.1e+07 M⁻¹ s⁻¹
- mean dwell time on the terminating ribosome in the absence of RF3 (tau 1BD-) [1]: 66 s
- k1RD+ (single RF1 binding event in the presence of RRF) [2]: 0.87 s⁻¹
- koff [2]: 0.76 s⁻¹
- fold slow-down of dissociation at 12°C against 20°C [12]: 2.6 fold
- kiAR- (spontaneous and simultaneous dissociation and ribosome rotation from the post-termination ribosome) [13]: 0.072 s⁻¹
- koff [14]: 2.5 s⁻¹
- occupancy time with Api137 (photobleaching and movie-time limit) [15]: 300 s
- koff [16]: 0.14 s⁻¹
- koff [17]: 0.69 s⁻¹
